T1: PUF4 RNA-binding domain (Saccharomyces cerevisiae, UniProt P25339 537-888)
T1 sequence: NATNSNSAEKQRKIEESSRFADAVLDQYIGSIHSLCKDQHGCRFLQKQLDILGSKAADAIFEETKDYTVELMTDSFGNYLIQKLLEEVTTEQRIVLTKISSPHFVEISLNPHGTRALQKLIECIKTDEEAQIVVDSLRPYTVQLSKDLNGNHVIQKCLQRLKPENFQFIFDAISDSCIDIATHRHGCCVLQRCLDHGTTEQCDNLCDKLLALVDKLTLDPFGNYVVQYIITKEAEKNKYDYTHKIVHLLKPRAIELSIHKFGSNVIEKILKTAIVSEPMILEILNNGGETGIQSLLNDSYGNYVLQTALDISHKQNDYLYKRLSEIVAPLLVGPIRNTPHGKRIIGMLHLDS


Biological target: T1, PUF4 RNA-binding domain
Experiment: Mg; RNA-MaP; 20 mM Na-HEPES pH 7.4, 30 mM KOAc, 0.75 mM MgCl2, 0.1% Tween-20, 5% glycerol, 0.1 mg/mL BSA, 2 mM DTT; 25 C; 0.0125-409.6 nM protein
Conditions: tags: N-His6-TEV cleaved; C-SNAP kept, Cy3B-labelled; label: tethered on chip by stalled RNA polymerase

| Binder | Kd |
| --- | --- |
| UCUCUUUGUAAUGGUCUCUCUU (ssRNA) [Ic_S1_P5E.1_K5.1_C5.1_H5.1_A5.1_[T5A]_[A7G]_F5.1_[T8G]_[A10C]_T5.1] | 1800 nM |
| UCUCUUUGUAUCGAUGUCUCUU (ssRNA) [Ic_S1_P5E.1_K5.1_C5.1_H5.1_A5.1_[T6C]_[A7G]_F5.1_[T8A]_[A10G]_T5.1] | 859 nM |
| UCUCUUUGUAUGUUUCUCUCUU (ssRNA) [Ic_S1_P5E.1_K5.1_C5.1_H5.1_A5.1_[T6G]_[A7T]_F5.1_[A10C]_T5.1] | 47 nM |
| UCUCUUUGUAUAUACGUCUCUU (ssRNA) [Ic_S1_P5E.1_K5.1_C5.1_H5.1_A5.1_[T6A]_[A7T]_F5.1_[T8A]_[T9C]_[A10G]_T5.1] | 14.9 nM |
| UCUCUUUGUAUAUAAUUCUCUU (ssRNA) [Ic_S1_P5E.1_K5.1_C5.1_H5.1_A5.1_[T6A]_[A7T]_F5.1_[T8A]_[T9A]_[A10T]_T5.1] | 4.21 nM |
| UCUCUUUGUACUCCCUUCUCUU (ssRNA) [Ic_S1_P5E.1_K5.1_C5.1_H5.1_A5.1_[T5C]_[A7C]_F5.1_[T8C]_[T9C]_[A10T]_T5.1] | 496 nM |
| UCUCUUUGUAUCCAGUUCUCUU (ssRNA) [Ic_S1_P5E.1_K5.1_C5.1_H5.1_A5.1_[T6C]_[A7C]_F5.1_[T8A]_[T9G]_[A10T]_T5.1] | 1040 nM |
| UCUCUUUGUAUACCGGUCUCUU (ssRNA) [Ic_S1_P5E.1_K5.1_C5.1_H5.1_A5.1_[T6A]_[A7C]_F5.1_[T8C]_[T9G]_[A10G]_T5.1] | 470 nM |
| UCUCUUUGUACGUCUGUCUCUU (ssRNA) [Ic_S1_P5E.1_K5.1_C5.1_H5.1_A5.1_[T5C]_[T6G]_[A7T]_F5.1_[T8C]_[A10G]_T5.1] | 697 nM |
| UCUCUUUGUACUCAUUUCUCUU (ssRNA) [Ic_S1_P5E.1_K5.1_C5.1_H5.1_A5.1_[T5C]_[A7C]_F5.1_[T8A]_[A10T]_T5.1] | 119 nM |
| UCUCUUAGUACAUAUCUCUU (ssRNA) [Ib_S1_P3E.1_K3.1_C3.1_H3.1_[T1A]_A3.1_[T5C]_F3.1_T3.1] | 1760 nM |
| UCUCUUGGUAUGUAUCUCUU (ssRNA) [Ib_S1_P3E.1_K3.1_C3.1_H3.1_[T1G]_A3.1_[A6G]_F3.1_T3.1] | 723 nM |
| UCUCUUUGUAUCGUUGUCUCUU (ssRNA) [Ic_S1_P5E.1_K5.1_C5.1_H5.1_A5.1_[T6C]_[A7G]_F5.1_[A10G]_T5.1] | 315 nM |
| UCUCUUUGUACUGUAAUCUCUU (ssRNA) [Ic_S1_P5E.1_K5.1_C5.1_H5.1_A5.1_[T5C]_[A7G]_F5.1_[T9A]_T5.1] | 7.89 nM |
| UCUCUUCGUAUUUAUCUCUU (ssRNA) [Ib_S1_P3E.1_K3.1_C3.1_H3.1_[T1C]_A3.1_[A6T]_F3.1_T3.1] | > 2300 nM |
| UCUCUUUGUAUAUGAAUCUCUU (ssRNA) [Ic_S1_P5E.1_K5.1_C5.1_H5.1_A5.1_[T6A]_[A7T]_F5.1_[T8G]_[T9A]_T5.1] | 19.4 nM |

| Binder | Kd |
| --- | --- |
| UCUCUUUGUAUCUCGAUCUCUU (ssRNA) [Ic_S1_P5E.1_K5.1_C5.1_H5.1_A5.1_[T6C]_[A7T]_F5.1_[T8C]_[T9G]_T5.1] | 463 nM |
| UCUCUUUGUAGCACUUUCUCUU (ssRNA) [Ic_S1_P5E.1_K5.1_C5.1_H5.1_A5.1_[T5G]_[T6C]_F5.1_[T8C]_[A10T]_T5.1] | 1000 nM |
| UCUCUUUGUAUGUACCUCUCUU (ssRNA) [Ic_S1_P5E.1_K5.1_C5.1_H5.1_A5.1_[T6G]_[A7T]_F5.1_[T8A]_[T9C]_[A10C]_T5.1] | 93.8 nM |
| UCUCUUUGUAGUUUAUUCUCUU (ssRNA) [Ic_S1_P5E.1_K5.1_C5.1_H5.1_A5.1_[T5G]_[A7T]_F5.1_[T9A]_[A10T]_T5.1] | 15.2 nM |
| UCUCUUUGUACGACCAUCUCUU (ssRNA) [Ic_S1_P5E.1_K5.1_C5.1_H5.1_A5.1_[T5C]_[T6G]_F5.1_[T8C]_[T9C]_T5.1] | 1000 nM |
| UCUCUUUGUAUCGCUGUCUCUU (ssRNA) [Ic_S1_P5E.1_K5.1_C5.1_H5.1_A5.1_[T6C]_[A7G]_F5.1_[T8C]_[A10G]_T5.1] | 978 nM |
| UCUCUUUGUACUCUUUUCUCUU (ssRNA) [Ic_S1_P5E.1_K5.1_C5.1_H5.1_A5.1_[T5C]_[A7C]_F5.1_[A10T]_T5.1] | 23.1 nM |
| UCUCUUUGUAUCCUAUUCUCUU (ssRNA) [Ic_S1_P5E.1_K5.1_C5.1_H5.1_A5.1_[T6C]_[A7C]_F5.1_[T9A]_[A10T]_T5.1] | 5.11 nM |
| UCUCUUUGUAUUUAAAUCUCUU (ssRNA) [Ic_S1_P5E.1_K5.1_C5.1_H5.1_A5.1_[A7T]_F5.1_[T8A]_[T9A]_T5.1] | 106 nM |
| UCUCUUUGUAUUGCCUUCUCUU (ssRNA) [Ic_S1_P5E.1_K5.1_C5.1_H5.1_A5.1_[A7G]_F5.1_[T8C]_[T9C]_[A10T]_T5.1] | 652 nM |
| UCUCUUUGUACGUUCAUCUCUU (ssRNA) [Ic_S1_P5E.1_K5.1_C5.1_H5.1_A5.1_[T5C]_[T6G]_[A7T]_F5.1_[T9C]_T5.1] | 51.8 nM |
| UCUCUUUGUAGCCUCAUCUCUU (ssRNA) [Ic_S1_P5E.1_K5.1_C5.1_H5.1_A5.1_[T5G]_[T6C]_[A7C]_F5.1_[T9C]_T5.1] | 721 nM |
| UCUCUUUGUAUCCAGCUCUCUU (ssRNA) [Ic_S1_P5E.1_K5.1_C5.1_H5.1_A5.1_[T6C]_[A7C]_F5.1_[T8A]_[T9G]_[A10C]_T5.1] | 1300 nM |
| UCUCUUUGUACUUCCCUCUCUU (ssRNA) [Ic_S1_P5E.1_K5.1_C5.1_H5.1_A5.1_[T5C]_[A7T]_F5.1_[T8C]_[T9C]_[A10C]_T5.1] | 782 nM |
| UCUCUUUGUAAAUAUCUCUCUU (ssRNA) [Ic_S1_P5E.1_K5.1_C5.1_H5.1_A5.1_[T5A]_[T6A]_[A7T]_F5.1_[T8A]_[A10C]_T5.1] | 27.1 nM |
| UCUCUUUGUAUAAACGUCUCUU (ssRNA) [Ic_S1_P5E.1_K5.1_C5.1_H5.1_A5.1_[T6A]_F5.1_[T8A]_[T9C]_[A10G]_T5.1] | 378 nM |
